Patent US20210310910A1 (University of California, published 2021)
Ends that are not written are not given here.

Target: T1, TRAP1 (human mitochondrial Hsp90) fused to SpyTag (human, UniProt Q12931 60-704, limits assumed)
T1 construct: Applied at 270 nM; also called TRAP1-SpyTag; TRAP1 with SpyTag
T1 sequence: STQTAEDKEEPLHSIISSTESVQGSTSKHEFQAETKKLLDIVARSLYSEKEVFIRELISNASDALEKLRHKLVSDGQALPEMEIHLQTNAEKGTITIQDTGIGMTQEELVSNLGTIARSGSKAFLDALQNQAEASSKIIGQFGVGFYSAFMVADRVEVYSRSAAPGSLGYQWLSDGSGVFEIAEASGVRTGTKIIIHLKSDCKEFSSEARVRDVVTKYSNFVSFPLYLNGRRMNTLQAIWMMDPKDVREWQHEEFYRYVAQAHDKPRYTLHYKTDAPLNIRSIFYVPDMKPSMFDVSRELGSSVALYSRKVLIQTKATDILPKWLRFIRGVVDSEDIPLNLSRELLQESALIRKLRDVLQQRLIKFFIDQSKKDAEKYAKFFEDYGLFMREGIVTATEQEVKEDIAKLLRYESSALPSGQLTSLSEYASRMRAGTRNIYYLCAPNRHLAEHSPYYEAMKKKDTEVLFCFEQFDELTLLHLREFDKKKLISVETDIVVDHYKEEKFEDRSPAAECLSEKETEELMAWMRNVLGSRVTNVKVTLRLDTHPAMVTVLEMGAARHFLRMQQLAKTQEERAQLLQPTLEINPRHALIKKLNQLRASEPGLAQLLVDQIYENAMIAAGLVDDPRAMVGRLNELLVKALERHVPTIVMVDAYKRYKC
Test: cryo-EM particle density on SpyTag affinity grid after washing
Experimental: The irreversible covalent bond forms within minutes and is highly specific and robust, paving the way for “purification on the grid”. A buffer with a pH of 7.5 containing 20 mM HEPES, 60 mM KCl was used throughout the process. SpyCatcher was diluted with buffer to a final concentration of 1.4 μM. SpyTag peptide was first dissolved in DMSO to a concentration of 560 μM and then diluted with buffer to a final concentration of 2.8 μM. […] The grid was washed with DI water and ethanol 3 times, and dried in ambient for 1 hour. Then the grid was picked up by tweezers from VITROBOT™ IV (Fisher Thermo Scientfic) and placed horizontally.
After coupling the SpyTag or SpyCatcher to the maleimide grids, incubation with a cognate-tagged protein of interest efficiently formed a stable attachment in a matter of minutes. In a first example, a SpyTag grid was exposed to a dilute solution (270 nM) of the dimeric mitochondrial Hsp90 molecular chaperone (TRAP1, ˜150KDa) fused to either SpyTag (control) or SpyCatcher (cognate sample, total molecular weight ˜165KDa). The grids were extensively washed to remove unbound or loosely adsorbed proteins. TRAP1 with SpyCatcher or SpyTag was diluted in buffer with 1 mM ADP-BeFₓ/MgCl₂ and was incubated at 37° C. for 30 min to achieve a homogenous closed state of TRAP1²⁴. The concentration of TRAP1 was 270 nM in all cases. […]

B1: SpyTag peptide anchored to the graphene oxide grid via a PEG spacer (peptide)
peptide: VPTIVMVDAYKRYKC
modifications: also: Cys coupled to azide-PEG-maleimide on graphene oxide film, position not given here
notes: also called SpyTag grid
- binding result: no binding (tested: 270 nM)
